Patent US10500274B2, “Methods for reducing viral load in HIV-1 infected patients” (CytoDyn Inc., priority 2008, dated 2019)
Several values for one entry are separate records, joined by “and”; a condition that tells them apart may be missing. Equal entries are not always repeated.

Tested on: R5-tropic HIV-1
Assay: Phase 1b clinical study: plasma HIV-1 RNA
Format: in vivo, human
Protocol: Plasma HIV-1 RNA levels were determined with the Cobas Amplicor HIV-1 Monitor Test (Version 1.5; Roche Diagnostics, Branchburg, N.J.). Samples <400 copies/mL were re-analyzed with the Ultrasensitive Monitor Method. Co-receptor tropism was determined at screening and Days 1, 8, 29 and 59 (Trofile™ assay, Monogram Biosciences, Inc., South San Francisco, Calif.). Viral susceptibility was determined on Days 1 and 59 with the Phenosense™ HIV Entry assay. Results obtained with CCR5^+ target cells were reported as Fold Change or relative EC50 (rEC50), which was defined as (EC50 test isolate)/(EC50 reference virus). […] Maximum percent inhibitions were determined from the plateaus of the inhibition curves. The reference virus was HIV-192HT594, a low-passage dual-tropic isolate. GeneSeq™ (Monogram Biosciences) was used to assess HIV-1 subtype and genotypic susceptibility to protease and reverse transcriptase inhibitors.
Statistical analyses were performed on log10 transformed HIV-1 RNA data, and changes were calculated relative to baseline (Day 1 pre-dose). Treatment and placebo groups were compared using an analysis of variance (ANOVA) model. […] In addition, 2-sided paired t-tests were used to evaluate changes from baseline in CCR5^+ lymphocytes. Where necessary, end-of-study lymphocyte data were used in place of missing baseline data. […] AUC∞ values for individual subjects were used in the model. Clinical Trial Design and Study Results:
The subjects comprised 31 males and 8 females, and their median age, CD4 counts and plasma HIV-1 RNA levels at baseline were 40.3 years, 484 cells/μL and 26,900 copies/mL, respectively Fifteen subjects reported prior use of antiretroviral therapy, and seven were co-infected with hepatitis C virus (HCV). All viruses were subtype B, and baseline genotypic resistance to existing drugs was limited to single-class resistance in two subjects in the 2 mg/kg group and a single subject in each of the other groups. The mean infusion time was 36 minutes, and all subjects completed the 58-day follow-up period. All patients were screened prior to the study for the presence of virus that utilizes only CCR5 as the entry coreceptor, i.e., CCR5-tropic virus.

B1: PRO 140: humanized IgG4,κ anti-CCR5 mAb, humanized version of the murine mAb PA14 (antibody, chains of the INN, looked up, V domains shown)
VH: EVQLVESGGGLVKPGGSLRLSCAASGYTFSNYWIGWVRQAPGKGLEWIGDIYPGGNYIRNNEKFKDKTTLSADTSKNTAYLQMNSLKTEDTAVYYCGSSFGSNYVFAWFTYWGQGTLVTVSS
VL: DIVMTQSPLSLPVTPGEPASISCRSSQRLLSSYGHTYLHWYLQKPGQSPQLLIYEVSNRFSGVPDRFSGSGSGTDFTLKISRVEAEDVGVYYCSQSTHVPLTFGQGTKVEIK
In the case of B1, the “AUC50, exposure required to achieve 50% of Emax” value (Emax model) is reported as 43.7 ± 15.6 mg·days/L, the “Mean HIV-1 RNA reduction (maximum)” value (HIV-infected adults, single IV 0.5 mg/kg) is reported as 0.58 log10 and the “day by which viral loads returned to baseline” value (all treatment groups) is reported as ≤ 29 days. For the same molecule, the “lowest documented HIV-1 RNA level on study” value (human, in vivo) was 61 copies/mL, the “Log10 change from baseline in HIV-1 RNA: Mean (±SD) of individual nadirs” value (“Log10 change … (±SD) of individual nadirs” below) (single IV 0.5 mg/kg) was −0.58 ± 0.30 log10 and the “antiviral response rate (subjects with ≥1.0 log10 reduction at any time)” value (single IV 0.5 mg/kg) was 10%. For the same molecule, the “mean log10 decline in viral load at Day 10” value (single IV 0.5 mg/kg) was 0.37 log10, the “Log10 change from baseline in HIV-1 RNA: Mean (±SD) at Day 10” value (shortened to “Log10 change … (±SD) at Day 10”) (single IV 0.5 mg/kg, 0.5 mg/kg) was −0.37 log10 and −0.37 ± 0.54 log10 and the “Log10 change … (±SD) of individual nadirs” value (single IV 2 mg/kg) was −1.20 ± 0.63 log10. For the same molecule, the “Mean HIV-1 RNA reduction (maximum)” value (single IV 2 mg/kg) was 1.20 log10, the “antiviral response rate (subjects with ≥1.0 log10 reduction at any time)” value (single IV 2 mg/kg) was 60% and the “mean log10 decline in viral load at Day 10” value (single IV 2 mg/kg) was 1.04 log10. The “Individual HIV-1 RNA reductions (ranged to)” value (single IV 2 mg/kg, 2 mg/kg) was “up to 2.5 log10 and ≤ 2.5 log10”, the “Log10 change … (±SD) at Day 10” value (single IV 2 mg/kg, 2 mg/kg) was −1.04 log10 and −1.04 ± 0.45 log10 and the “Mean HIV-1 RNA reduction (average maximum decrease of viral load)” value (single IV 5 mg/kg) was 1.83 log10. The “antiviral response rate (subjects with ≥1.0 log10 reduction at any time)” value (single IV 5 mg/kg) was 100%, the “day on which mean viral load reductions of 1 log10 were first observed” value (single IV 5 mg/kg) was 5 Day and the “mean log10 decline in viral load at Day 10 (nine days post-treatment)” value (single IV 5 mg/kg) was 1.70 log10. The “persistence of mean 1 log10 viral load reduction post-treatment” value (single IV 5 mg/kg) was 2-3 weeks, the “viral load change at day 22” value (single IV 5 mg/kg) was −0.73 log and the “Individual HIV-1 RNA reductions (ranged to)” value (single IV 5 mg/kg, 5 mg/kg) was “up to 2.5 log10 and ≤ 2.5 log10”. The “Log10 change … (±SD) at Day 10” value (single IV 5 mg/kg, 5 mg/kg) was −1.70 log10 and −1.70 ± 0.49 log10 and the “Log10 change … (±SD) of individual nadirs” value (single IV 5 mg/kg, 5 mg/kg) was −1.8 log10 and −1.84 ± 0.41 log10.
